Experimental data: article PMC4560423, “Identification and Characterization of a Novel Galactofuranose-Specific β-D-Galactofuranosidase from Streptomyces Species” (PLoS ONE, 2015)

Experiments:
[1] = test system: O=[N+]([O-])c1ccc(O[C@@H]2O[C@@H]([C@H](O)CO)[C@H](O)[C@H]2O)cc1; experiment: purified protein; conditions: 37 °C, acetate buffer pH 4.5 (general assay; pH of the kinetics not stated)
[2] = target: T1, ORF1110 Galf-ase (ORF1110 protein) (Streptomyces sp. JHA19, UniProt A0A0K2SRV3); experiment: inhibition of pNP-β-D-Galf hydrolysis, pNP absorbance at […] nm; assay type: biochemical
T1 construct: recombinant from E. coli BL21(DE3)CodonPlus, pET50b, N-terminal 2xHis6 and Nus tags (cut by HRV3C for TLC only); ORF 786 aa; GH2 with C-terminal AbfB domain
T1 sequence (A0A0K2SRV3 46-786): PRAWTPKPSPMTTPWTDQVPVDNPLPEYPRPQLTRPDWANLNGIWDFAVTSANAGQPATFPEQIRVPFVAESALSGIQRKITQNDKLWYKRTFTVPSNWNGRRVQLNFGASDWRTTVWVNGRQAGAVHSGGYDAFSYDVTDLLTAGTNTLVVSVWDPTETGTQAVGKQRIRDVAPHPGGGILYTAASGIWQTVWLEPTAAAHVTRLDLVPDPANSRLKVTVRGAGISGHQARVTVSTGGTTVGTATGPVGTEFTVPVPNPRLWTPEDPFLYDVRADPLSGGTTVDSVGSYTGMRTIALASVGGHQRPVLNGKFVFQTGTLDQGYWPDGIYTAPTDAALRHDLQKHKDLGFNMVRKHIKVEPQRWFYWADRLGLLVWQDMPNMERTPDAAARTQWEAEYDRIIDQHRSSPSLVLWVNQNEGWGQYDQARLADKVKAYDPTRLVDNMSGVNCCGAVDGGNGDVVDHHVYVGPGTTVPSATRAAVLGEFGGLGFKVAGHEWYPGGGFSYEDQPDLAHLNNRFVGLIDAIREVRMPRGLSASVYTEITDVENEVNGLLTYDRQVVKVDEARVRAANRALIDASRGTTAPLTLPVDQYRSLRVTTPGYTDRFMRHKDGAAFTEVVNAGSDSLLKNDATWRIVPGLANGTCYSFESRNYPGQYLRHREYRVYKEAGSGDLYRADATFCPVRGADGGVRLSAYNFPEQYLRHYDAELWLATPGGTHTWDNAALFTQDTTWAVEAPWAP

Row | Molecule | Km [1] [mM] | Ki [2] [mM]
1 | ORF1110 Galf-ase (ORF1110 protein) (Streptomyces sp. JHA19) | 4.4 | 
2 | O=C1O[C@@H](CO)[C@H](O)[C@H]1O [L-arabino-1,4-lactone] |  | 51
